{"source": "patent US20250263462A1", "about": "(US Dept. of Health and Human Services, published 2025)", "binders": {"B1": {"name": "TRAV12N-3*01/BV4*01 murine anti-KRAS G12D TCR (SEQ ID NOs: 11 and 12) (TCR, V domains shown)", "V domain 1": "GDSVTQTEGLVTLTEGLPVMLNCTYQTIYSNPFLFWYVQHLNESPRLLLKSFTDNKRTEHQGFHATLHKSSSSFHLQKSSAQLSDSALYYCALRGNAGAKLTFGGGTRLTVRP", "V domain 2": "ETAVFQTPNYHVTQVGNEVSFNCKQTLGHDTMYWYKQDSKKLLKIMFSYNNKQLIVNETVPRRFSPQSSDKAHLNLRIKSVEPEDSAVYLCASSSRDWSAETLYFGSGTRLTVLE"}}, "experiment_in_all_cases": "cell-based or functional assay", "key": {"[1]": {"molecular_target": "HLA-A11 on COS7/A11 cells expressing the WT KRAS minigene (23-mer SEQ ID NO: 118) (human, UniProt A*11:01)"}, "[2]": {"molecular_target": "HLA-A11 on COS7/A11 cells expressing the KRAS G12V minigene (23-mer SEQ ID NO: 120) (human, UniProt A*11:01)"}, "[3]": {"molecular_target": "HLA-A11 on COS7/A11 cells expressing the KRAS G12D minigene (23-mer SEQ ID NO: 119) (human, UniProt A*11:01)"}, "[4]": {"molecular_target": "T1, WT KRAS 10-mer peptide (SEQ ID NO: 30) presented by HLA-A11 on pulsed cells (human, UniProt A*11:01)"}, "[5]": {"molecular_target": "WT KRAS 9-mer peptide (SEQ ID NO: 31) presented by HLA-A11 on pulsed cells (human, UniProt A*11:01)"}, "[6]": {"molecular_target": "T2, KRAS G12D 9-mer peptide KRAS8-16 … (SEQ ID NO: 34) presented by HLA-A11 on pulsed cells (human, UniProt A*11:01)"}, "[7]": {"molecular_target": "KRAS G12D 9-mer peptide KRAS7-15 … (SEQ ID NO: 124) presented by HLA-A11 on pulsed cells (human, UniProt A*11:01)"}, "[8]": {"molecular_target": "KRAS G12V 10-mer peptide … (SEQ ID NO: 33) presented by HLA-A11 on pulsed cells (human, UniProt A*11:01)"}, "[9]": {"molecular_target": "T1, WT KRAS 10-mer peptide (SEQ ID NO: 30) …", "remark": "listed apart in the source"}, "[10]": {"molecular_target": "T2, KRAS G12D 9-mer peptide KRAS8-16 … (SEQ …)", "remark": "listed apart in the source"}}, "data": [{"binder": "B1", "values": [{"measurement": "IFN-γ, PBL + COS/A11 minigene transfectant", "setting": "[1]", "value": 130, "unit": "pg/mL"}, {"measurement": "IFN-γ, PBL + COS/A11 minigene transfectant", "setting": "[2]", "value": 126, "unit": "pg/mL"}, {"measurement": "IFN-γ, PBL + COS/A11 minigene transfectant", "setting": "[3]", "value": "> 10000", "unit": "pg/mL"}, {"measurement": "IFN-γ, PBL + Cos7/A11 pulsed at 10^-6 M", "setting": "[4]", "value": 82, "unit": "pg/mL"}, {"measurement": "IFN-γ, PBL + Cos7/A11 pulsed at 10^-7 M", "setting": "[4]", "value": 77, "unit": "pg/mL"}, {"measurement": "IFN-γ, PBL + Cos7/A11 pulsed at 10^-8 M", "setting": "[4]", "value": 85, "unit": "pg/mL"}, {"measurement": "IFN-γ, PBL + Cos7/A11 pulsed at 10^-9 M", "setting": "[4]", "value": 102, "unit": "pg/mL"}, {"measurement": "IFN-γ, PBL + Cos7/A11 pulsed at 10^-10 M", "setting": "[4]", "value": 88, "unit": "pg/mL"}, {"measurement": "IFN-γ, PBL + Cos7/A11 pulsed at 10^-11 M", "setting": "[4]", "value": 81, "unit": "pg/mL"}, {"measurement": "IFN-γ, PBL + Cos7/A11 pulsed at 10^-12 M", "setting": "[4]", "value": 76, "unit": "pg/mL"}, {"measurement": "IFN-γ, PBL + Cos7/A11 pulsed at 10^-13 M", "setting": "[4]", "value": 92, "unit": "pg/mL"}, {"measurement": "IFN-γ, PBL + Cos7/A11 pulsed at 10^-6 M", "setting": "[5]", "value": 90, "unit": "pg/mL"}, {"measurement": "IFN-γ, PBL + Cos7/A11 pulsed at 10^-7 M", "setting": "[5]", "value": 96, "unit": "pg/mL"}, {"measurement": "IFN-γ, PBL + Cos7/A11 pulsed at 10^-8 M", "setting": "[5]", "value": 95, "unit": "pg/mL"}, {"measurement": "IFN-γ, PBL + Cos7/A11 pulsed at 10^-9 M", "setting": "[5]", "value": 88, "unit": "pg/mL"}, {"measurement": "IFN-γ, PBL + Cos7/A11 pulsed at 10^-10 M", "setting": "[5]", "value": 95, "unit": "pg/mL"}, {"measurement": "IFN-γ, PBL + Cos7/A11 pulsed at 10^-11 M", "setting": "[5]", "value": 84, "unit": "pg/mL"}, {"measurement": "IFN-γ, PBL + Cos7/A11 pulsed at 10^-12 M", "setting": "[5]", "value": 105, "unit": "pg/mL"}, {"measurement": "IFN-γ, PBL + Cos7/A11 pulsed at 10^-13 M", "setting": "[5]", "value": 103, "unit": "pg/mL"}, {"measurement": "IFN-γ, PBL + Cos7/A11 pulsed at 10^-6 M", "setting": "[6]", "value": 125, "unit": "pg/mL"}, {"measurement": "IFN-γ, PBL + Cos7/A11 pulsed at 10^-7 M", "setting": "[6]", "value": 86, "unit": "pg/mL"}, {"measurement": "IFN-γ, PBL + Cos7/A11 pulsed at 10^-8 M", "setting": "[6]", "value": 90, "unit": "pg/mL"}, {"measurement": "IFN-γ, PBL + Cos7/A11 pulsed at 10^-9 M", "setting": "[6]", "value": 92, "unit": "pg/mL"}, {"measurement": "IFN-γ, PBL + Cos7/A11 pulsed at 10^-10 M", "setting": "[6]", "value": 95, "unit": "pg/mL"}, {"measurement": "IFN-γ, PBL + Cos7/A11 pulsed at 10^-11 M", "setting": "[6]", "value": 88, "unit": "pg/mL"}, {"measurement": "IFN-γ, PBL + Cos7/A11 pulsed at 10^-12 M", "setting": "[6]", "value": 91, "unit": "pg/mL"}, {"measurement": "IFN-γ, PBL + Cos7/A11 pulsed at 10^-13 M", "setting": "[6]", "value": 84, "unit": "pg/mL"}, {"measurement": "IFN-γ, PBL + COS7/A11 pulsed at 1 × 10^-6 M", "setting": "[7]", "value": 87, "unit": "pg/mL"}, {"measurement": "IFN-γ, PBL + COS7/A11 pulsed at 1 × 10^-7 M", "setting": "[7]", "value": 91, "unit": "pg/mL"}, {"measurement": "IFN-γ, PBL + COS7/A11 pulsed at 1 × 10^-8 M", "setting": "[7]", "value": 72, "unit": "pg/mL"}, {"measurement": "IFN-γ, PBL + COS7/A11 pulsed at 1 × 10^-9 M", "setting": "[7]", "value": 90, "unit": "pg/mL"}, {"measurement": "IFN-γ, PBL + COS7/A11 pulsed at 1 × 10^-10 M", "setting": "[7]", "value": 90, "unit": "pg/mL"}, {"measurement": "IFN-γ, PBL + COS7/A11 pulsed at 1 × 10^-11 M", "setting": "[7]", "value": 95, "unit": "pg/mL"}, {"measurement": "IFN-γ, PBL + COS7/A11 pulsed at 1 × 10^-12 M", "setting": "[7]", "value": 83, "unit": "pg/mL"}, {"measurement": "IFN-γ, PBL + COS7/A11 pulsed at 1 × 10^-13 M", "setting": "[7]", "value": 112, "unit": "pg/mL"}, {"measurement": "IFN-γ, PBL + COS7/A11 pulsed at 1 × 10^-6 M", "setting": "[8]", "value": 97, "unit": "pg/mL"}, {"measurement": "IFN-γ, PBL + COS7/A11 pulsed at 1 × 10^-7 M", "setting": "[8]", "value": 83, "unit": "pg/mL"}, {"measurement": "IFN-γ, PBL + COS7/A11 pulsed at 1 × 10^-8 M", "setting": "[8]", "value": 86, "unit": "pg/mL"}, {"measurement": "IFN-γ, PBL + COS7/A11 pulsed at 1 × 10^-9 M", "setting": "[8]", "value": 88, "unit": "pg/mL"}, {"measurement": "IFN-γ, PBL + COS7/A11 pulsed at 1 × 10^-10 M", "setting": "[8]", "value": 88, "unit": "pg/mL"}, {"measurement": "IFN-γ, PBL + COS7/A11 pulsed at 1 × 10^-11 M", "setting": "[8]", "value": 86, "unit": "pg/mL"}, {"measurement": "IFN-γ, PBL + COS7/A11 pulsed at 1 × 10^-12 M", "setting": "[8]", "value": 96, "unit": "pg/mL"}, {"measurement": "IFN-γ, PBL + COS7/A11 pulsed at 1 × 10^-13 M", "setting": "[8]", "value": 97, "unit": "pg/mL"}, {"measurement": "IFN-γ, PBL + COS7/A11 pulsed at 1 × 10^-6 M", "setting": "[9]", "value": 78, "unit": "pg/mL"}, {"measurement": "IFN-γ, PBL + COS7/A11 pulsed at 1 × 10^-7 M", "setting": "[9]", "value": 88, "unit": "pg/mL"}, {"measurement": "IFN-γ, PBL + COS7/A11 pulsed at 1 × 10^-8 M", "setting": "[9]", "value": 102, "unit": "pg/mL"}, {"measurement": "IFN-γ, PBL + COS7/A11 pulsed at 1 × 10^-9 M", "setting": "[9]", "value": 99, "unit": "pg/mL"}, {"measurement": "IFN-γ, PBL + COS7/A11 pulsed at 1 × 10^-10 M", "setting": "[9]", "value": 95, "unit": "pg/mL"}, {"measurement": "IFN-γ, PBL + COS7/A11 pulsed at 1 × 10^-11 M", "setting": "[9]", "value": 86, "unit": "pg/mL"}, {"measurement": "IFN-γ, PBL + COS7/A11 pulsed at 1 × 10^-12 M", "setting": "[9]", "value": 102, "unit": "pg/mL"}, {"measurement": "IFN-γ, PBL + COS7/A11 pulsed at 1 × 10^-13 M", "setting": "[9]", "value": 98, "unit": "pg/mL"}, {"measurement": "IFN-γ, PBL + COS7/A11 pulsed at 1 × 10^-6 M", "setting": "[10]", "value": 136, "unit": "pg/mL"}, {"measurement": "IFN-γ, PBL + COS7/A11 pulsed at 1 × 10^-7 M", "setting": "[10]", "value": 95, "unit": "pg/mL"}, {"measurement": "IFN-γ, PBL + COS7/A11 pulsed at 1 × 10^-8 M", "setting": "[10]", "value": 99, "unit": "pg/mL"}, {"measurement": "IFN-γ, PBL + COS7/A11 pulsed at 1 × 10^-9 M", "setting": "[10]", "value": 90, "unit": "pg/mL"}, {"measurement": "IFN-γ, PBL + COS7/A11 pulsed at 1 × 10^-10 M", "setting": "[10]", "value": 85, "unit": "pg/mL"}, {"measurement": "IFN-γ, PBL + COS7/A11 pulsed at 1 × 10^-11 M", "setting": "[10]", "value": 85, "unit": "pg/mL"}, {"measurement": "IFN-γ, PBL + COS7/A11 pulsed at 1 × 10^-12 M", "setting": "[10]", "value": 94, "unit": "pg/mL"}, {"measurement": "IFN-γ, PBL + COS7/A11 pulsed at 1 × 10^-13 M", "setting": "[10]", "value": 115, "unit": "pg/mL"}]}]}
